In article PMC7692546:

Assays:
[1] = biological target: F. hepatica cathepsin L3 (Fasciola hepatica); test: enzyme inhibition (fluorogenic peptide substrate); KT inhibitor (2 μM) incubated with each protease in 100 μl reaction buffer for 15 min at 37 °C, then fluorogenic substrate; inhibition constants by the Morrison equation for tight-binding inhibition
[2] = biological target: F. hepatica cathepsin L3 (Fasciola hepatica)
[3] = biological target: Bovine trypsin (bovine)
[4] = biological target: F. hepatica cathepsin L1 (Fasciola hepatica); test: enzyme inhibition (fluorogenic peptide substrate); KT inhibitor (2 μM) incubated with each protease in 100 μl reaction buffer for 15 min at 37 °C, then fluorogenic substrate; inhibition constants by the Morrison equation for tight-binding inhibition
[5] = biological target: Human cathepsin L (human); test: as above
[6] = biological target: F. hepatica cathepsin L2 (Fasciola hepatica); test: as above
[7] = biological target: Bovine trypsin (bovine); test: as above
[8] = biological target: Human cathepsin K (human) (UniProt P43235); test: as above
Chain of Human cathepsin K (human) (P43235 115-329): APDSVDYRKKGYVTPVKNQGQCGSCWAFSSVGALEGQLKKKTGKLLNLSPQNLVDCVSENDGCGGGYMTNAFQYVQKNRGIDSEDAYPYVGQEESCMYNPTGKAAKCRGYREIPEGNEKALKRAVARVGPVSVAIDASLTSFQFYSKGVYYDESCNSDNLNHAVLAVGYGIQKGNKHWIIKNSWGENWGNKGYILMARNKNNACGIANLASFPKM

Recombinant FhKT1.1 (Fasciola hepatica Kunitz-type inhibitor 1.1) (natural protein)
Ki [1]: 1.8 nM | reduction of FhCL3 activity at 2 μM inhibitor (fluorogenic substrate) [2]: 93.1%

Recombinant FhKT1.3 (Fasciola hepatica Kunitz-type inhibitor 1.3) (natural protein)
reduction in trypsin activity at 2 μM inhibitor (fluorogenic substrate) [3]: 99.2% | Ki [4]: 0.6 nM | Ki [5]: 2.6 nM | Ki [6]: 10.6 nM | Ki [1]: 3.2 nM | Ki [7]: 1.8 nM | Ki [8]: 5.5 nM

rFhKT1.1Arg^19/Ala^19 (natural protein)
Ki [4]: 4.2 nM | Ki [5]: 0.3 nM | Ki [6]: 35 nM | Ki [1]: 32.8 nM | Ki [8]: 18.5 nM

rFhKT1.1Leu^15/Arg^15 (natural protein)
Ki [1]: 3.6 nM
